# Assay results reported in article PMC6858872 (Nature structural & molecular biology, 2019).
# Several values for one entry are separate records, joined by “and”; a condition that tells them apart may be missing. Equal entries are not always repeated. Where two headings read alike, the source gives them in different places.
# B1: CH1 (immunoglobulin fragment, inherently misfolded without CL) (domain or fragment)
# chain: not shown
# B2: IRE1 LD (human IRE1 luminal domain, 32-440) (domain or fragment)
# chain: LLFVSTLDGSLHAVSKRTGSIKWTLKEDPVLQVPTHVEEPAFLPDPNDGSLYTLGSKNNEGLTKLPFTIPELVQASPCRSSDGILYMGKKQDIWYVIDLLTGEKQQTLSSAFADSLCPSTSLLYLGRTEYTITMYDTKTRELRWNATYFDYAASLPEDDVDYKMSHFVSNGDGLVVTVDSESGDVLWIQNYASPVVAFYVWQREGLRKVMHINVAVETLRYLTFMSGEVGRITKWKYPFPKETEAKSKLTPTLYVGKYSTSLYASPSMVHEGVAVVPRGSTLPLLEGPQTDGVTIGDKGECVITPSTDVKFDPGLKSKNKLNYLRNYWLLIGHHETPLSASTKMLERFPNNLPKHRENVIPADSEKKSFEEVINLVDQTSENAPTTVSRDVEEKPAHAPARPEAPVDSM
# Key:
# [1] = biological target: T1, YFP-BiP (human, UniProt P11021 28-654); assay: FRET or BRET
# [2] = biological target: T1, YFP-BiP; assay: FRET or BRET; remark: listed apart in the source
# [3] = biological target: T1, YFP-BiP; assay: FRET or BRET; remark: listed apart in the source
# [4] = biological target: the molecule itself; assay: SEC
Binder,Ki of the high concentration phase (Ki^High) [1] [µM],Ki of the high concentration phase (Ki^High) [2] [µM],Ki of the high concentration phase (Ki^High) [3] [µM],stoichiometry N [4]
B1,5.2 ± 0.6,4.3 ± 0.4,0.2 ± 0.01,
B2,,,,2 and 4
